Where “and” joins values, the source holds several entries; their conditions need not be identical. Equal entries are not always repeated.
Columns and labels:
[1] = target: human serum amyloid A 1.1 (hSAA1.1), without the N-terminal methionine (human) (UniProt P0DJI8); experiment: SEC; Superdex 200 10/300 GL, 4°C, protein refolded at 20 µM, ~30 µL loaded, column in TBS (20 mM Tris/200 mM NaCl, pH 8.3), 0.5 mL/min; sizes from MW standards, globular shape assumed; self-association
[2] = target: human serum amyloid A 1.1 (hSAA1.1), without the N-terminal methionine (human) (UniProt P0DJI8); experiment: SEC; as a1, protein refolded at 75 µM; self-association
[3] = target: human serum amyloid A 1.1 (hSAA1.1), without the N-terminal methionine (human) (UniProt P0DJI8); experiment: SEC; as a1, protein refolded at 8.5 µM; self-association
[4] = target: human serum amyloid A 1.1 with the N-terminal methionine (MetSAA1.1) (human) (UniProt P0DJI8); experiment: SEC; Superdex 200 10/300 GL, 4°C, protein refolded at 20 µM, ~30 µL loaded, column in TBS (20 mM Tris/200 mM NaCl, pH 8.3), 0.5 mL/min; sizes from MW standards, globular shape assumed; self-association
[5] = target: human serum amyloid A 1.1 with the N-terminal methionine (MetSAA1.1) (human) (UniProt P0DJI8); experiment: SEC; as a1, protein refolded at 75 µM; self-association
[6] = target: human serum amyloid A 1.1 with the N-terminal methionine (MetSAA1.1) (human) (UniProt P0DJI8); experiment: SEC; "cross-purified" proteins (MetSAA1.1 also passed through Histrap Ni-NTA; hSAA1.1 also purified by cation and anion exchange), compared with "regular" proteins, refolded at 20 µM, 4°C; self-association
[7] = target: human serum amyloid A 1.1 with the N-terminal methionine (MetSAA1.1) (human) (UniProt P0DJI8); experiment: SEC; as a1, protein refolded at 8.5 µM; self-association

stoichiometry N [1]	stoichiometry N [2]	stoichiometry N [3]	stoichiometry N [4]	stoichiometry N [5]	stoichiometry N [6]	stoichiometry N [7]	Substance
8 and 6	8 and 6	4 and 8	–	–	–	–	human serum amyloid A 1.1 (hSAA1.1), without the N-terminal methionine (from UniProt P0DJI8 19-122) (natural protein)
–	–	–	4 and 8	4 and 8	4	8 and 4	human serum amyloid A 1.1 with the N-terminal methionine (MetSAA1.1) (from UniProt P0DJI8 19-122) (natural protein)
